The target of assay [1] is FCA-mScarlet-I (Arabidopsis thaliana). Kind of assay: single-particle tracking with stepwise photobleaching (SlimVar microscopy); fluorescent FCA fusions in nuclei of living Arabidopsis root tissue, 10 ms/frame; molecules per tracked particle from initial intensity over single-molecule brightness; control and sof78 backgrounds for FCA-eGFP.
Assay [2] has as its target MBP-PrLD (purified recombinant FCA C-terminal half containing prion-like domains) (Arabidopsis). Nature of the assay: SEC-MALS; Superdex-200 10/300 GL, 40 mM Tris-HCl pH 7.4, 500 mM NaCl; protein at 2 mg/mL; self-association.

One may read the stoichiometry N as a count of units in the complex or per binding partner. The substance FCA-mScarlet-I (natural protein) gave a stoichiometry N in assay [1] of 4 molecules.

With “MBP-PrLD (purified recombinant FCA C-terminal half containing prion-like domains) (domain or fragment)”, in assay [2], the stoichiometry N is more than 100 molecules.

The record behind these values is paper PMC11962161.
